Measurements as given in patent publication US20040138134A1.
Where no end group is shown, it is not given here.

target: natriuretic peptide receptor on C3H10T1/2 cells; assay: cell-based or functional assay

Compared with CAGLKLARIGSMSGLGC [CNP variant SEQ ID NO:24], CFGLKLARIGSASGLGC [CNP variant SEQ ID NO:26] is higher in % relative binding (cGMP, Biotrak EIA, peptide at 10^-6 M): -5.85% for the first, 5.75% for the second.

Compared with CAGLKLARIGSASGLGC [CNP variant SEQ ID NO:27], CIGLKLDRIGSMSGLGC [CNP variant SEQ ID NO:28] is higher in % relative binding (cGMP, Biotrak EIA, peptide at 10^-6 M): -10.4% for the first, 13.9% for the second.

First: CLGLKLDRIGSMSGLGC [CNP variant SEQ ID NO:29]
Second: CMGLKLDRIGSMSGLGC [CNP variant SEQ ID NO:30]
The % relative binding (cGMP, Biotrak EIA, peptide at 10^-6 M) of the first is higher: 6.25% for the first, -1.34% for the second.

Going from CWGLKLDRIGSMSGLGC [CNP variant SEQ ID NO:31] to CVGLKLDRIGSMSGLGC [CNP variant SEQ ID NO:32], the % relative binding (cGMP, Biotrak EIA, peptide at 10^-6 M) rises from -10.8% to 5.74%.

First: CHGLKLDRIGSMSGLGC [CNP variant SEQ ID NO:33]
Second: CTGLKLDRIGSMSGLGC [CNP variant SEQ ID NO:34]
The % relative binding (cGMP, Biotrak EIA, peptide at 10^-6 M) of the first is higher: 5.7% for the first, -6.9% for the second.

Going from CFGLKLERIGSMSGLGC [CNP variant SEQ ID NO:35] to CFGLKLQRIGSMSGLGC [CNP variant SEQ ID NO:36], the % relative binding (cGMP, Biotrak EIA, peptide at 10^-6 M) falls from 9.45% to -17.1%.

Compared with CFGLKLNRIGSMSGLGC [CNP variant SEQ ID NO:37], CFGLKLIRIGSMSGLGC [CNP variant SEQ ID NO:38] is lower in % relative binding (cGMP, Biotrak EIA, peptide at 10^-6 M): 17.2% for the first, 7.23% for the second.

Compared with CFGLKLMRIGSMSGLGC [CNP variant SEQ ID NO:39], CFGAKLDRIGSMSGLGC [CNP variant SEQ ID NO:40] is higher in % relative binding (cGMP, Biotrak EIA, peptide at 10^-6 M): 7.78% for the first, 20.2% for the second.

Compared with CFGIKLDRIGSMSGLGC [CNP variant SEQ ID NO:41], CFGVKLDRIGSMSGLGC [CNP variant SEQ ID NO:42] is higher in % relative binding (cGMP, Biotrak EIA, peptide at 10^-6 M): 47.4% for the first, 64.2% for the second.

Going from CFGLLLDRIGSMSGLGC [CNP variant SEQ ID NO:43] to CFGLMLDRIGSMSGLGC [CNP variant SEQ ID NO:44], the % relative binding (cGMP, Biotrak EIA, peptide at 10^-6 M) falls from 29.7% to 5.42%.

Compared with CFGLKADRIGSMSGLGC [CNP variant SEQ ID NO:45], CFGLKIDRIGSMSGLGC [CNP variant SEQ ID NO:46] is higher in % relative binding (cGMP, Biotrak EIA, peptide at 10^-6 M): 11.3% for the first, 88.1% for the second.

Going from CFGLKVDRIGSMSGLGC [CNP variant SEQ ID NO:47] to CFGLKLDHIGSMSGLGC [CNP variant SEQ ID NO:48], the % relative binding (cGMP, Biotrak EIA, peptide at 10^-6 M) falls from 66.7% to 13.5%.

Compared with CFGLKLDKIGSMSGLGC [CNP variant SEQ ID NO:49], CFGLKLDQIGSMSGLGC [CNP variant SEQ ID NO:50] is lower in % relative binding (cGMP, Biotrak EIA, peptide at 10^-6 M): 21.5% for the first, 12% for the second.

Compared with CFGLKLDRLGSMSGLGC [CNP variant SEQ ID NO:51], CFGLKLDRVGSMSGLGC [CNP variant SEQ ID NO:52] is higher in % relative binding (cGMP, Biotrak EIA, peptide at 10^-6 M): 14.2% for the first, 27.1% for the second.

Going from CFGLKLDRTGSMSGLGC [CNP variant SEQ ID NO:53] to CFGLKLDRIGAMSGLGC [CNP variant SEQ ID NO:54], the % relative binding (cGMP, Biotrak EIA, peptide at 10^-6 M) rises from -1.95% to 54.5%.

Going from CFGLKLDRIGGMSGLGC [CNP variant SEQ ID NO:55] to CFGLKLDRIGTMSGLGC [CNP variant SEQ ID NO:56], the % relative binding (cGMP, Biotrak EIA, peptide at 10^-6 M) rises from 27.8% to 74.1%.

Going from CFGLKLDRIGNMSGLGC [CNP variant SEQ ID NO:57] to CFGLKLDRIGSMSALGC [CNP variant SEQ ID NO:58], the % relative binding (cGMP, Biotrak EIA, peptide at 10^-6 M) rises from 27.4% to 53.6%.

Going from CFGLKLDRIGSMSLLGC [CNP variant SEQ ID NO:59] to CFGLKLDRIGSMSKLGC [CNP variant SEQ ID NO:60], the % relative binding (cGMP, Biotrak EIA, peptide at 10^-6 M) rises from 15.3% to 49.2%.

Going from CFGLKLDRIGSMSGQGC [CNP variant SEQ ID NO:61] to CFGLKLDRIGSMSGMGC [CNP variant SEQ ID NO:62], the % relative binding (cGMP, Biotrak EIA, peptide at 10^-6 M) rises from -3.47% to 51.3%.

Compared with CFGLKLDRIGSMSGAGC [CNP variant SEQ ID NO:63], CFGLKLDRIGSMSGGGC [CNP variant SEQ ID NO:64] is lower in % relative binding (cGMP, Biotrak EIA, peptide at 10^-6 M): -1.11% for the first, -10.1% for the second.

Going from CFGLKLDRIGSWSGLGC [CNP variant SEQ ID NO:65] to CFGLKLDRIGSHSGLGC [CNP variant SEQ ID NO:66], the % relative binding (cGMP, Biotrak EIA, peptide at 10^-6 M) falls from 66.5% to 66.2%.

Compared with CFGLKLDRIGSKSGLGC [CNP variant SEQ ID NO:67], CFGLKLDRIGSSSGLGC [CNP variant SEQ ID NO:68] is lower in % relative binding (cGMP, Biotrak EIA, peptide at 10^-6 M): 66.9% for the first, 62.5% for the second.

Binder CFGLKLDRIGSGSGLGC [CNP variant SEQ ID NO:69] has a % relative binding (cGMP, Biotrak EIA, peptide at 10^-6 M) of 62.1%.

target: natriuretic peptide receptor on C3H10T1/2 cells; assay: cell-based or functional assay; remark: another data set of the same source

Compared with GLSKGCFGLKLDRIGSMSGLGC [CNP 1-22 (native human CNP, 22-mer)], CHFGLKLDRIGAQSC [CNP variant SEQ ID NO:13] is lower in % relative binding (cGMP, Biotrak EIA, peptide at 10^-6 M): 100% for the first, 26.5% for the second.

Going from CFGLKLDRIGSMSC [CNP variant SEQ ID NO:14] to CFGLKLDRIGAQSC [CNP variant SEQ ID NO:15], the % relative binding (cGMP, Biotrak EIA, peptide at 10^-6 M) falls from 29.9% to 20.6%.

Compared with CFGLKLDRIGSMC [CNP variant SEQ ID NO:16], CFGLKLDRIGAMC (ends and bridges not checked; cysteine pairing not given here) [CNP variant SEQ ID NO:17] is lower in % relative binding (cGMP, Biotrak EIA, peptide at 10^-6 M): 17.3% for the first, 3.4% for the second.

Going from CFGLKLDRIGSQC [CNP variant SEQ ID NO:18] to CFGLKLDRIGAQC [CNP variant SEQ ID NO:19], the % relative binding (cGMP, Biotrak EIA, peptide at 10^-6 M) falls from 11.8% to 3.8%.

Going from CHFGLKLDRIGSC [CNP variant SEQ ID NO:20] to CFGLKLDRIGSC [CNP variant SEQ ID NO:21], the % relative binding (cGMP, Biotrak EIA, peptide at 10^-6 M) rises from 11.9% to 22.7%.

First: CFGLKLDRIGC [CNP variant SEQ ID NO:22]
Second: CHFGLKLDRIC [CNP variant SEQ ID NO:23]
The % relative binding (cGMP, Biotrak EIA, peptide at 10^-6 M) of the first is higher: 4.2% for the first, 3.8% for the second.

Going from CAGLKLDRIGSMSGLGC [CNP variant SEQ ID NO:6] to CFGLKLARIGSMSGLGC [CNP variant SEQ ID NO:7], the % relative binding (cGMP, Biotrak EIA, peptide at 10^-6 M) rises from 43.8% to 49.1%.

Compared with CFGLKLDAIGSMSGLGC [CNP variant SEQ ID NO:8], CFGLKLDRAGSMSGLGC [CNP variant SEQ ID NO:9] is lower in % relative binding (cGMP, Biotrak EIA, peptide at 10^-6 M): 18.4% for the first, 11.5% for the second.

Compared with CHFGLKLDRIGSMSC [CNP variant SEQ ID NO:11], CHFGLKLDRIGSMAC [CNP variant SEQ ID NO:12] is lower in % relative binding (cGMP, Biotrak EIA, peptide at 10^-6 M): 25.9% for the first, 21.7% for the second.
